Laboratory results published in publication PMC3638996 (Structure (London, England : 1993), 2013).

T1: Murine Gαq (amino acids 7-359), biotinylated (mouse, UniProt P21279 7-359, biotinylated with biotinamidohexanoic acid N-hydroxysuccinimide)
T1 sequence (looked up): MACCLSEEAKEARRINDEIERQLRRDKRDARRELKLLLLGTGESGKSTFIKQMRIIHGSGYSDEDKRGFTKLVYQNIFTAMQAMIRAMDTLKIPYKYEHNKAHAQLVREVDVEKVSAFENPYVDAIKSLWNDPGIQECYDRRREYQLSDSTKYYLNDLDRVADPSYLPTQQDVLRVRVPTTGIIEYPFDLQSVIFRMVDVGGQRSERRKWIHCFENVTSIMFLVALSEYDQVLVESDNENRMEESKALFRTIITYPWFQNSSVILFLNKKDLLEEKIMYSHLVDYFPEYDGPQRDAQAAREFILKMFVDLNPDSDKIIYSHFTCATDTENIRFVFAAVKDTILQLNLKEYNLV


What was measured:
[1] = molecular target: Gαi/q-R183C chimera (Gαq R183C with the N-terminal helix of Gαi), biotinylated (not stated | mouse); assay: bead-based flow cytometry binding assay
[2] = molecular target: T1, Murine Gαq (amino acids 7-359), …; assay: bead-based flow cytometry binding assay
[3] = molecular target: T1, Murine Gαq (amino acids 7-359), …; assay: bead-based flow cytometry competition assay

Binder	Kd [1]	Kd [2]	IC50 [3]
Full-length RGS2, fluorescently labeled with Alexa Fluor-488 (natural protein, human, UniProt P41220 1-211, looked up, labeled with Alexa Fluor-488 carboxylic acid, 2,3,5,6-tetrafluorophenyl ester, 5-isomer) MQSAMFLAVQHDCRPMDKSAGSGHKSEEKREKMKRTLLKDWKTRLSYFLQNSSTPGKPKTGKKSKQQAFIKPSPEEAQLWSEAFDELLASKYGLAAFRAFLKSEFCEENIEFWLACEDFKKTKSPQKLSSKARKIYTDFIEKEAPKEINIDFQTKTLIAQNIQEATSGCFTTAQKRVYSLMENNSYPRFLESEFYQDLCKKPQITTEPHAT	22 nM	3.3 nM	
RGS2 RH domain (residues 72-203), wild type (domain or fragment, human) GEFGSPSPEEAQLWSEAFDELLASKYGLAAFRAFLKSEFCEENIEFWLACEDFKKTKSPQKLSSKARKIYTDFIEKEAPKEINIDFQTKTLIAQNIQEATSGCFTTAQKRVYSLMENNSYPRFLESEFYQDLCKKPQ			270 nM
RGS2 RH domain (residues 72-203) S179D (domain or fragment, human) GEFGSPSPEEAQLWSEAFDELLASKYGLAAFRAFLKSEFCEENIEFWLACEDFKKTKSPQKLSSKARKIYTDFIEKEAPKEINIDFQTKTLIAQNIQEATSGCFTTAQKRVYDLMENNSYPRFLESEFYQDLCKKPQ			16000 nM
RGS2 RH domain (residues 72-203) S179M (domain or fragment, human) GEFGSPSPEEAQLWSEAFDELLASKYGLAAFRAFLKSEFCEENIEFWLACEDFKKTKSPQKLSSKARKIYTDFIEKEAPKEINIDFQTKTLIAQNIQEATSGCFTTAQKRVYMLMENNSYPRFLESEFYQDLCKKPQ			130 nM
RGS2 RH domain (residues 72-203) N183K (domain or fragment, human) GEFGSPSPEEAQLWSEAFDELLASKYGLAAFRAFLKSEFCEENIEFWLACEDFKKTKSPQKLSSKARKIYTDFIEKEAPKEINIDFQTKTLIAQNIQEATSGCFTTAQKRVYSLMEKNSYPRFLESEFYQDLCKKPQ			7100 nM
RGS2 RH domain (residues 72-203) S179K (domain or fragment, human) GEFGSPSPEEAQLWSEAFDELLASKYGLAAFRAFLKSEFCEENIEFWLACEDFKKTKSPQKLSSKARKIYTDFIEKEAPKEINIDFQTKTLIAQNIQEATSGCFTTAQKRVYKLMENNSYPRFLESEFYQDLCKKPQ			3400 nM
RGS2 RH domain (residues 72-203) N183F (domain or fragment, human) GEFGSPSPEEAQLWSEAFDELLASKYGLAAFRAFLKSEFCEENIEFWLACEDFKKTKSPQKLSSKARKIYTDFIEKEAPKEINIDFQTKTLIAQNIQEATSGCFTTAQKRVYSLMEFNSYPRFLESEFYQDLCKKPQ			170 nM
RGS2 RH domain (residues 72-203) N183A (domain or fragment, human) GEFGSPSPEEAQLWSEAFDELLASKYGLAAFRAFLKSEFCEENIEFWLACEDFKKTKSPQKLSSKARKIYTDFIEKEAPKEINIDFQTKTLIAQNIQEATSGCFTTAQKRVYSLMEANSYPRFLESEFYQDLCKKPQ			1500 nM
RGS2 RH domain (residues 72-203) K175A (domain or fragment, human) GEFGSPSPEEAQLWSEAFDELLASKYGLAAFRAFLKSEFCEENIEFWLACEDFKKTKSPQKLSSKARKIYTDFIEKEAPKEINIDFQTKTLIAQNIQEATSGCFTTAQARVYSLMENNSYPRFLESEFYQDLCKKPQ			560 nM
RGS2 RH domain (residues 72-203) S179N (domain or fragment, human) GEFGSPSPEEAQLWSEAFDELLASKYGLAAFRAFLKSEFCEENIEFWLACEDFKKTKSPQKLSSKARKIYTDFIEKEAPKEINIDFQTKTLIAQNIQEATSGCFTTAQKRVYNLMENNSYPRFLESEFYQDLCKKPQ			690 nM
RGS2 RH domain (residues 72-203) E182A (domain or fragment, human) GEFGSPSPEEAQLWSEAFDELLASKYGLAAFRAFLKSEFCEENIEFWLACEDFKKTKSPQKLSSKARKIYTDFIEKEAPKEINIDFQTKTLIAQNIQEATSGCFTTAQKRVYSLMANNSYPRFLESEFYQDLCKKPQ			300 nM
